Publication PMC4356135, “Small heat shock protein 20 (Hsp20) facilitates nuclear import of protein kinase D 1 (PKD1) during cardiac hypertrophy” (Cell Communication and Signaling : CCS, 2015)

T1: PKD1 on the ProtoArray Human Protein Microarray (human, UniProt Q15139 1-912)
T1 construct: protein kinase D1 (PKD1) as spotted on the human protein microarray; construct not described; Proteins on this commercial array may carry a carrier tag; also called protein kinase D1; source: spotted on ProtoArray Human Protein Microarray (Invitrogen)
T1 sequence (looked up): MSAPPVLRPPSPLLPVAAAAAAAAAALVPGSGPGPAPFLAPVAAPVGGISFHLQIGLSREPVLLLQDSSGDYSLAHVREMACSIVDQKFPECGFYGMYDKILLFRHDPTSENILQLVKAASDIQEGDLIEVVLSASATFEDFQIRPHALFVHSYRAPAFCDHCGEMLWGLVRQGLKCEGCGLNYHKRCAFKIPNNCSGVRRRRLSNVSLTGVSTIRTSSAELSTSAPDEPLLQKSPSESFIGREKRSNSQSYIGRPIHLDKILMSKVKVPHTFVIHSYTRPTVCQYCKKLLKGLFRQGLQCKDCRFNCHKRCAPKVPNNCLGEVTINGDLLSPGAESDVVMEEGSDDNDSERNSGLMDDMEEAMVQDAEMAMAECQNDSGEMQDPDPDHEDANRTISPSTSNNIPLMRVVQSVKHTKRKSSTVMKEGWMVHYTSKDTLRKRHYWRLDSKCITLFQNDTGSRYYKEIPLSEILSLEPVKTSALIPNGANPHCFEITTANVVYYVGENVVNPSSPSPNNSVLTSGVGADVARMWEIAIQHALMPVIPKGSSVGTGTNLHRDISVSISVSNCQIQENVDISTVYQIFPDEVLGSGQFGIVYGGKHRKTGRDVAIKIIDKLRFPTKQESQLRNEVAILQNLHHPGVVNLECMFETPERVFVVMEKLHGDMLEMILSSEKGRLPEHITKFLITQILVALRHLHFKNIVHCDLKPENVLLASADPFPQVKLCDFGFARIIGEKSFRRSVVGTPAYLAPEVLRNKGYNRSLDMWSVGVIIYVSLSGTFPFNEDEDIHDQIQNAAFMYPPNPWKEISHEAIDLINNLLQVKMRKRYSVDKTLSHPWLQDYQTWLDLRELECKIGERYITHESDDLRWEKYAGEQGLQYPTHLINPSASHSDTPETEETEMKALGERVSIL

B1: His-tagged HSP20 protein (natural protein, UniProt O14558 1-160, looked up)
chain: MEIPVPVQPSWLRRASAPLPGLSAPGRLFDQRFGEGLLEAELAALCPTTLAPYYLRAPSVALPVAQVPTDPGHFSVLLDVKHFSPEEIAVKVVGEHVEVHARHEERPDEHGFVAREFHRRYRLPPGVDPAAVTSALSPEGVLSIQAAPASAQAPPPAAAK
notes: HSP20 (heat shock protein 20), open reading frame from Ultimate ORF clone IOH57317 in pENTR221, moved into pDEST-17 by Gateway cloning; also called His-HSP20; His-Hsp20; source: E. coli, purified (Ni-NTA Superflow resin); not shown: His, N-terminal, kept

Tests used:
[1] = biological target: T1, PKD1 on the ProtoArray Human Protein …; test: peptide or protein array; ProtoArray Human Protein Microarray probed with 10 uM (200 ug/ml) His-HSP20 in 1xPBS, 5 mM MgCl2, 0.5 mM DTT, 0.05% Triton X-100, 5% glycerol, 1% BSA for 1.5 h at 4 C; detected with anti-His and Alexa Fluor 647 secondary antibody; control array in parallel; settings: both partners purified
His-tagged HSP20 protein = biological target: B1; test: peptide or protein array; sequence of PKD1 spotted as 25mer peptides each shifted by five amino acids, and alanine scanning array of the 606-630 peptide, overlaid with Hsp20; methods in ref. 31; settings: both partners purified

| binding result [1] | binding result (His-tagged HSP20 protein) | Binder |
| --- | --- | --- |
| binds |  | B1 |
|  | binds | GRDVAIKIIDKLRFPTKQESQLRNE (also called G606-E630; source: SPOT-synthesised peptide on array) [PKD1 25mer peptide spanning residues 606 to 630 (peptide array spot)] |
